The record followed here is publication PMC6553528, “An Interaction Network of the Human SEPT9 Established by Quantitative Mass Spectrometry” (G3: Genes|Genomes|Genetics, 2019).

The target in this test is T1, 6his-SEPT9 (human, UniProt Q9UHD8 2-586).
T1 construct: SEPT9 isoform 1 (SEPT9_i1), human; PCR amplified from the GFP-SEPT9_i1 plasmid and cloned into the in-house plasmid pES; The forward primer reads ENLYFQG (a TEV site, surmised) followed by KKSYSGG, i.e. SEPT9 from its second codon; the reverse primer ends with PEAPEM and stop codons; also called 6his-tagged SEPT9; 6his tagged SEPT9; source: E. coli, purified (IMAC, approx. 70% purity; desalted …)
T1 sequence (looked up): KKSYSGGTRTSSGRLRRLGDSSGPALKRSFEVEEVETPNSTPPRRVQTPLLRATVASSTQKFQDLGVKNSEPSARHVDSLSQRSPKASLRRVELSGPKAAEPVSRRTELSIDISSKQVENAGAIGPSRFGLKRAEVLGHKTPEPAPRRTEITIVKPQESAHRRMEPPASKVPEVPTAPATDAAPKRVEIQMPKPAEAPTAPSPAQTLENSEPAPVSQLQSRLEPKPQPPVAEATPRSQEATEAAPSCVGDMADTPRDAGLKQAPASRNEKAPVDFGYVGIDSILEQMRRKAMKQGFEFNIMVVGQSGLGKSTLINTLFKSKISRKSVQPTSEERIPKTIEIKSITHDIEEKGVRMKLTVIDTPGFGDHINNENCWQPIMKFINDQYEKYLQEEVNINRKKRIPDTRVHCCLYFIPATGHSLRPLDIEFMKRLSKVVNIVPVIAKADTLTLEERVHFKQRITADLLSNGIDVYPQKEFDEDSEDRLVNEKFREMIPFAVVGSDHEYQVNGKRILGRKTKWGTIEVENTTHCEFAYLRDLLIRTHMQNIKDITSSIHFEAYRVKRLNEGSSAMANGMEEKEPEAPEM
As to the kind of experiment: pull-down; GST fusion proteins immobilized on Glutathione Sepharose from the crude extract, incubated with 2 µM 6his-SEPT9 for 1 h in PBS; Western blot with anti-6his and anti-GST. The conditions noted are these: both partners purified.

B1: GST-MYO6_(835-1294) (domain or fragment, UniProt Q9UM54 835-1294, looked up)
chain: PRIDGLVKVGTLKKRLDKFNEVVSVLKDGKPEMNKQIKNLEISIDTLMAKIKSTMMTQEQIQKEYDALVKSSEELLSALQKKKQQEEEAERLRRIQEEMEKERKRREEDEKRRRKEEEERRMKLEMEAKRKQEEEERKKREDDEKRIQAEVEAQLARQKEEESQQQAVLEQERRDRELALRIAQSEAELISDEAQADLALRRSLDSYPVSKNDGTRPKMTPEQMAKEMSEFLSRGPAVLATKAAAGTKKYDLSKWKYAELRDTINTSCDIELLAACREEFHRRLKVYHAWKSKNKKRNTETEQRAPKSVTDYDFAPFLNNSPQQNPAAQIPARQREIEMNRQQRFFRIPFIRPADQYKDPQSKKKGWWYAHFDGPWIARQMELHPDKPPILLVAGKDDMEMCELNLEETGLTRKRGAEILPRQFEEIWERCGGIQYLQNAIESRQARPTYATAMLQSLLK
notes: Cloned in pGEX2T; also called C-terminal tail fragment of MYO6; source: E. coli, immobilized on Glutathione Sepharose from the crude extract; not shown: GST, N-terminal, kept
For B1, the binding result is “binds”.

B2: GST-MYO1C_(809-1063) (domain or fragment, human, UniProt O00159 809-1063, looked up)
chain: LDHVRTSFLLNLRRQLPQNVLDTSWPTPPPALREASELLRELCIKNMVWKYCRSISPEWKQQLQQKAVASEIFKGKKDNYPQSVPRLFISTRLGTDEISPRVLQALGSEPIQYAVPVVKYDRKGYKPRSRQLLLTPNAVVIVEDAKVKQRIDYANLTGISVSSLSDSLFVLHVQRADNKQKGDVVLQSDHVIETLTKTALSANRVNSININQGSITFAGGPGRDGTIDFTPGSELLITKAKNGHLAVVAPRLNSR
notes: Unconventional myosin-Ic (MYO1C), C-terminal tail fragment, amino acids 809-1063, amplified from cDNA of 1306 fibroblast mRNA; Cloned in pGEX2T; also called C-terminal tail fragment of MYO1C; source: E. coli, immobilized on Glutathione Sepharose from the crude extract; not shown: GST, N-terminal, kept
With B2, the binding result is recorded as “binds”.
